{"source": "the RNAGym collection of RNA variant scans (doi:10.7554/elife.80360)", "parents": {"B1": {"name": "CPEB3 Ribozyme (parent)", "chain": "GGGGGCCACAGCAGAAGCGUUCACGUCGCGGCCCCUGUCAGAUUCUGGUGAAUCUGCGAAUUCUGCUGU"}}}
{"variants_of": "B1", "experiment": "self-cleavage, relative activity (ratio to wild type); higher = more cleavage; co-transcriptional"}
{"variant": "G5A G50U", "self-cleavage": 0.906}
{"variant": "G5C C57U", "self-cleavage": 0.0922}
{"variant": "G4U A15G", "self-cleavage": 0.678}
{"variant": "G4U A15C", "self-cleavage": 0.138}
{"variant": "G4U U44A", "self-cleavage": 0.532}
{"variant": "G4A U38C", "self-cleavage": 0.699}
{"variant": "G4U C9U", "self-cleavage": 0.954}
{"variant": "G4A G48C", "self-cleavage": 0.802}
{"variant": "G4A G48U", "self-cleavage": 0.919}
{"variant": "G5U C33G", "self-cleavage": 0.0433}
{"variant": "G5U C33A", "self-cleavage": 0.0802}
{"variant": "G5U C33U", "self-cleavage": 0.121}
{"variant": "G4A U21A", "self-cleavage": 0.793}
{"variant": "G5C G11C", "self-cleavage": 0.147}
{"variant": "G5C G11A", "self-cleavage": 0.164}
{"variant": "G5C G58A", "self-cleavage": 0.198}
{"variant": "G5C G58C", "self-cleavage": 0.293}
{"variant": "G5A U46G", "self-cleavage": 0.925}
{"variant": "G5A U46A", "self-cleavage": 0.907}
{"variant": "G5C A16G", "self-cleavage": 0.205}
{"variant": "G5C A16U", "self-cleavage": 0.169}
{"variant": "G5C A16C", "self-cleavage": 0.0946}
{"variant": "G5A C9G", "self-cleavage": 0.982}
{"variant": "G5A C9U", "self-cleavage": 1.02}
{"variant": "G5C C27A", "self-cleavage": 0.109}
{"variant": "G5C C27G", "self-cleavage": 0.0907}
{"variant": "G4U G30A", "self-cleavage": 0.142}
{"variant": "G4A U64C", "self-cleavage": 0.696}
{"variant": "G4A U64A", "self-cleavage": 0.7}
{"variant": "G4A U64G", "self-cleavage": 0.672}
{"variant": "G5C U62G", "self-cleavage": 0.179}
{"variant": "G5C U62C", "self-cleavage": 0.141}
{"variant": "G4C C6U", "self-cleavage": 0.132}
{"variant": "G4U G65C", "self-cleavage": 0.411}
{"variant": "G4U G65U", "self-cleavage": 0.254}
{"variant": "G5A C32U", "self-cleavage": 0.992}
{"variant": "G5A C32G", "self-cleavage": 0.847}
{"variant": "G4U A59G", "self-cleavage": 0.442}
{"variant": "G5A A59U", "self-cleavage": 0.415}
{"variant": "G4C G68A", "self-cleavage": 0.976}
{"variant": "G4C G68C", "self-cleavage": 0.941}
{"variant": "G5A C12U", "self-cleavage": 0.931}
{"variant": "G5C C32U", "self-cleavage": 0.703}
{"variant": "G5C C32A", "self-cleavage": 0.805}
{"variant": "G5C U44A", "self-cleavage": 0.24}
{"variant": "G5C U44G", "self-cleavage": 0.203}
{"variant": "G5U C35A", "self-cleavage": 0.0833}
{"variant": "G5U C35U", "self-cleavage": 0.0952}
{"variant": "G4U C39U", "self-cleavage": 0.376}
{"variant": "G4U C39G", "self-cleavage": 0.558}
{"variant": "G4C U62A", "self-cleavage": 0.157}
{"variant": "G5C G56U", "self-cleavage": 0.131}
{"variant": "G5C G56C", "self-cleavage": 0.166}
{"variant": "G4C C34A", "self-cleavage": 0.16}
{"variant": "G4C C34U", "self-cleavage": 0.383}
{"variant": "G5U A40U", "self-cleavage": 0.132}
{"variant": "G5U A40G", "self-cleavage": 0.171}
{"variant": "G4U G68C", "self-cleavage": 0.97}
{"variant": "G4U G68A", "self-cleavage": 0.983}
{"variant": "G5A U62A", "self-cleavage": 0.492}
{"variant": "G5A U62G", "self-cleavage": 0.447}
{"variant": "G5C C54A", "self-cleavage": 0.123}
{"variant": "G5C C24A", "self-cleavage": 0.112}
{"variant": "G4A G19A", "self-cleavage": 0.092}
{"variant": "G4U G56A", "self-cleavage": 0.466}
{"variant": "G4C G41U", "self-cleavage": 0.159}
{"variant": "G5C A10U", "self-cleavage": 0.341}
{"variant": "G4A G41U", "self-cleavage": 0.525}
{"variant": "G4A G41C", "self-cleavage": 0.341}
{"variant": "G4C A42G", "self-cleavage": 0.667}
{"variant": "G4A G68C", "self-cleavage": 0.959}
{"variant": "G4A G68A", "self-cleavage": 0.999}
{"variant": "G4U A42C", "self-cleavage": 0.179}
{"variant": "G4A U49A", "self-cleavage": 0.852}
{"variant": "G4C C24U", "self-cleavage": 0.124}
{"variant": "G4C A15U", "self-cleavage": 0.0935}
{"variant": "G4C C32A", "self-cleavage": 0.188}
{"variant": "G4C C32G", "self-cleavage": 0.0983}
{"variant": "G4C C27G", "self-cleavage": 0.108}
{"variant": "G4C C27A", "self-cleavage": 0.0979}
{"variant": "G5U", "self-cleavage": 0.316}
{"variant": "G5C", "self-cleavage": 0.24}
{"variant": "G5A", "self-cleavage": 0.933}
{"variant": "G5U C39A", "self-cleavage": 0.0897}
{"variant": "G5U C39G", "self-cleavage": 0.0932}
{"variant": "G5C G17U", "self-cleavage": 0.118}
{"variant": "G4U A23C", "self-cleavage": 0.573}
{"variant": "G4U A23U", "self-cleavage": 0.86}
{"variant": "G4C U49G", "self-cleavage": 0.341}
{"variant": "G4C U49C", "self-cleavage": 0.548}
{"variant": "G4C U49A", "self-cleavage": 0.657}
{"variant": "G4U G50U", "self-cleavage": 0.817}
{"variant": "G4U G50C", "self-cleavage": 0.764}
{"variant": "G5U G14C", "self-cleavage": 0.0568}
{"variant": "G4C A59C", "self-cleavage": 0.187}
{"variant": "G5A U55G", "self-cleavage": 0.433}
{"variant": "G5A A42C", "self-cleavage": 0.505}
{"variant": "G5U C45G", "self-cleavage": 0.149}
{"variant": "G4A U69C", "self-cleavage": 1.04}
{"variant": "G4A U62A", "self-cleavage": 0.601}
{"variant": "G4A U62G", "self-cleavage": 0.419}
{"variant": "G5U A13C", "self-cleavage": 0.0841}
{"variant": "G5C G31A", "self-cleavage": 0.2}
{"variant": "G5C G31C", "self-cleavage": 0.0712}
{"variant": "G4C A60C", "self-cleavage": 0.188}
{"variant": "G4C A60G", "self-cleavage": 0.235}
{"variant": "G5U C57U", "self-cleavage": 0.0743}
{"variant": "G5U C57G", "self-cleavage": 0.115}
{"variant": "G4A G56A", "self-cleavage": 0.604}
{"variant": "G5A G37A", "self-cleavage": 0.143}
{"variant": "G4C G31A", "self-cleavage": 0.179}
{"variant": "G4C G31U", "self-cleavage": 0.179}
{"variant": "G5A G11A", "self-cleavage": 0.785}
{"variant": "G4U C22G", "self-cleavage": 0.0672}
{"variant": "G4A U61C", "self-cleavage": 0.433}
{"variant": "G5A U21G", "self-cleavage": 0.161}
{"variant": "G5U C24A", "self-cleavage": 0.105}
{"variant": "G5A C63G", "self-cleavage": 0.448}
{"variant": "G4U C66G", "self-cleavage": 0.431}
{"variant": "G4U G5C", "self-cleavage": 0.105}
{"variant": "G4U G5A", "self-cleavage": 0.0691}
{"variant": "G5U C27A", "self-cleavage": 0.116}
{"variant": "G4A U46A", "self-cleavage": 0.899}
{"variant": "G4A U46G", "self-cleavage": 0.841}
{"variant": "G4C G48A", "self-cleavage": 0.731}
{"variant": "G4U U49C", "self-cleavage": 0.758}
{"variant": "G4U U49A", "self-cleavage": 0.821}
{"variant": "G4U C18A", "self-cleavage": 0.0913}
{"variant": "G4C G5A", "self-cleavage": 0.0843}
{"variant": "G5C A15G", "self-cleavage": 0.3}
{"variant": "G5C A15C", "self-cleavage": 0.113}
{"variant": "G5C A15U", "self-cleavage": 0.15}
{"variant": "G4U G37U", "self-cleavage": 0.128}
{"variant": "G5U C22A", "self-cleavage": 0.0283}
{"variant": "G5U C22U", "self-cleavage": 0.0607}
{"variant": "G4U U67G", "self-cleavage": 0.921}
{"variant": "G5A C33U", "self-cleavage": 0.568}
{"variant": "G5A C18A", "self-cleavage": 0.12}
{"variant": "G5A C34A", "self-cleavage": 0.203}
{"variant": "G5A C34U", "self-cleavage": 0.599}
{"variant": "G4U U26A", "self-cleavage": 0.282}
{"variant": "G4U U26C", "self-cleavage": 0.641}
{"variant": "G4U A8G", "self-cleavage": 0.512}
{"variant": "G4U A8C", "self-cleavage": 0.691}
{"variant": "G4A G28A", "self-cleavage": 0.117}
{"variant": "G5A C66U", "self-cleavage": 0.88}
{"variant": "G5A A23C", "self-cleavage": 0.766}
{"variant": "G5A A23G", "self-cleavage": 0.806}
{"variant": "G5C C45A", "self-cleavage": 0.283}
{"variant": "G4U U38G", "self-cleavage": 0.114}
{"variant": "G4C G50U", "self-cleavage": 0.637}
{"variant": "G5U A15U", "self-cleavage": 0.092}
{"variant": "G5U A15G", "self-cleavage": 0.19}
{"variant": "G5U A15C", "self-cleavage": 0.0532}
{"variant": "G5C U55C", "self-cleavage": 0.175}
{"variant": "G5C U55G", "self-cleavage": 0.115}
{"variant": "G4C G19C", "self-cleavage": 0.104}
{"variant": "G4C G19U", "self-cleavage": 0.103}
{"variant": "G5C G48C", "self-cleavage": 0.245}
{"variant": "G5C G48U", "self-cleavage": 0.194}
{"variant": "G5C U49G", "self-cleavage": 0.282}
{"variant": "G5C U49C", "self-cleavage": 0.282}
{"variant": "G5C U49A", "self-cleavage": 0.287}
{"variant": "G4C C57G", "self-cleavage": 0.15}
{"variant": "G4C C57U", "self-cleavage": 0.234}
{"variant": "G5C C7U", "self-cleavage": 0.156}
{"variant": "G5C G28A", "self-cleavage": 0.134}
